Test system: Lenti-X 293T cells
Assay: YFP fluorescence quenching anion reporter plate reader assay of engineered receptors stimulated with acetylcholine or a non-native ligand
Format: cell-based
Text: To screen these mutant LGICs for those having novel response profiles to ligands, an anion reporter assay was developed to assess the function of the LGICs in a high throughput format. In this assay, cells expressing a YFP reporter whose fluorescence is quenched in the presence of anion are transfected with DNA encoding the channel of interest. Upon exposure to ligand, channels that are activated will flux anion, resulting in a dose-dependent quench of the YFP that can be detected on a plate reader. The greater the quench signal (i.e., the more positive the value), the higher the ligand activity on the receptor is.
Lenti-X 293T cells (LX293T, Clontech) were maintained in DMEM containing 10% FBS and 1% penicillin/streptomycin (Invitrogen). […] Two days before assay, cells were split at a density of 20,000 cells/well in a 96-well tissue culture plate coated with poly-d lysine (Thermo Scientific). The next day, the cells were transiently transfected with 0.1 μg of DNA per well using standard Fugene protocol (Promega). On the day of assay, cells were washed 2 times in 1× extracellular solution (1×ECS: 140 mM NaCl, 5 mM KCl, 1 mM MgCl2, 2 mM CaCl2), 10 mM HEPES, 10 mM glucose, pH 7.2, mOsms 300). After the last wash, 100 μL of 1×ECS was added to the wells and the plate was incubated at 37° C. for 30 min. While incubating the plate, the drugs were diluted to a 2× concentration in 1×ECS-NaI (same components as 1×ECS except the 140 mM NaCl was replaced by 140 mM NaI). The plates were then read on a Flexstation3 (Molecular Devices). Each well, 8 wells at a time, of the plate is read for 2 min using a Flexstation3 (Molecular Devices) as follows: 1) a baseline YFP fluorescence is read for 17 sec, 2) 100 μL of ligand is added, and 3) the changes in YFP fluorescence are then measured every 1.3 sec for 1 minute and 43 seconds. The percent quench is calculated from the average fluorescence of the last 10 seconds of the read divided by the baseline average of the first 15 seconds prior to the ligand addition.
FIGS. 1A-1J provide heat maps of the percent quench of YFP fluorescence following stimulation by various doses of either acetylcholine or the non-native ligand as indicated in the Figures. CODA71 (SEQ ID NO: 33) was used as a control, and CODA75 (SEQ ID NO: 29, a non-responding chimeric engineered receptor) was used as the negative control. Quenching of the fluorescence signal, as indicated by blue shaded cells, indicate the level of engineered receptor activation by the non-native ligand at that concentration.

B1: CODA333: engineered chimeric LGIC receptor, L131S in SEQ ID NO: 33 (protein)
chain: MRCSPGGVWLALAASLLHVSLQGEFQRKLYKELVKNYNPLERPVANDSQPLTVYFSLSLLQIMDVDEKNQVLTTNIWLQMSWTDHYLQWNVSEYPGVKTVRFPDGQIWKPDILLYNSADERFDATFHTNVSVNSSGHCQYLPPGIFKSSCPMDLKNFPMDVQTCKLKFGSWSYGGWSLDLQMQEADISGYIPNGEWDLVGIPGKRSERFYECCKEPYPDVTFTVTMRRRMGYYLIQMYIPSLLIVILSWISFWINMDAAPARVGLGITTVLTMTTQSSGSRASLPKVSYVKAIDIWMAVCLLFVFSALLEYAAVNFVSRQHKELLRFRRKRRHHKSPMLNLFQEDEAGEGRFNFSAYGMGPACLQAKDGISVKGANNSNTTNPPPAPSKSPEEMRKLFIQRAKKIDKISRIGFPMAFLIFNMFYWIIYKIVRREDVHNQ
modifications: synthetic sequence of chimeric LGIC
1 nM CNL001, first column
  YFP fluorescence quenching using CNL001: 76.165%
1 nM CNL001, second column
  YFP fluorescence quenching using CNL001: 78.463%
1 nM brd
  YFP fluorescence quenching using TC-5619/Bradanicline: −0.85%
3 nM brd
  YFP fluorescence quenching using TC-5619/Bradanicline: −2.05%
3 nM var, first column
  YFP fluorescence quenching using Varenicline: −4.782
3 nM var, second column
  YFP fluorescence quenching using Varenicline: 1.048
10 nM CNL001, first column
  YFP fluorescence quenching using CNL001: 79.349%
10 nM CNL001, second column
  YFP fluorescence quenching using CNL001: 78.238%
10 nM brd
  YFP fluorescence quenching using TC-5619/Bradanicline: −2.8%
30 nM brd
  YFP fluorescence quenching using TC-5619/Bradanicline: −2.07%
30 nM fac
  YFP fluorescence quenching using Facinicline: 6.27
30 nM var, first column
  YFP fluorescence quenching using Varenicline: 2.084
30 nM var, second column
  YFP fluorescence quenching using Varenicline: 5.022
50 nM CNL001, first column
  YFP fluorescence quenching using CNL001: 80.221%
50 nM CNL001, second column
  YFP fluorescence quenching using CNL001: 81.789%
50 nM abt
  YFP fluorescence quenching using ABT-126: −20.99%
100 nM CNL001, first column
  YFP fluorescence quenching using CNL001: 81.855%
100 nM CNL001, second column
  YFP fluorescence quenching using CNL001: 80.766%
100 nM CNL002
  YFP fluorescence quenching using CNL002: −15.44%
100 nM abt
  YFP fluorescence quenching using ABT-126: −16.21%
100 nM azd0328
  YFP fluorescence quenching using AZD-0328: 38.49%
100 nM brd
  YFP fluorescence quenching using TC-5619/Bradanicline: 30.34%
300 nM abt
  YFP fluorescence quenching using ABT-126: −13.34%
300 nM azd0328
  YFP fluorescence quenching using AZD-0328: 67.13%
300 nM brd
  YFP fluorescence quenching using TC-5619/Bradanicline: 50.56%
300 nM fac
  YFP fluorescence quenching using Facinicline: 69.8
300 nM var, first column
  YFP fluorescence quenching using Varenicline: 12.162
300 nM var, second column
  YFP fluorescence quenching using Varenicline: 12.979
500 nM var, first column
  YFP fluorescence quenching using Varenicline: 29.238
500 nM var, second column
  YFP fluorescence quenching using Varenicline: 25.614
1 uM CNL001, first column
  YFP fluorescence quenching using CNL001: 81.707%
1 uM CNL001, second column
  YFP fluorescence quenching using CNL001: 82.665%
1 uM CNL002
  YFP fluorescence quenching using CNL002: 15.21%
1 uM abt
  YFP fluorescence quenching using ABT-126: 4.96%
1 uM brd
  YFP fluorescence quenching using TC-5619/Bradanicline: 72.42%
1 uM tc6987
  YFP fluorescence quenching using TC-6987: −3.87
1 uM var, first column
  YFP fluorescence quenching using Varenicline: 43.863
1 uM var, second column
  YFP fluorescence quenching using Varenicline: 39.346
3 uM tc6987
  YFP fluorescence quenching using TC-6987: −20.2
5 uM tc6987
  YFP fluorescence quenching using TC-6987: −15.25
10 uM fac
  YFP fluorescence quenching using Facinicline: 80.07
10 uM tc6987
  YFP fluorescence quenching using TC-6987: 4.92
30 uM azd0328
  YFP fluorescence quenching using AZD-0328: 80.61%
30 uM fac
  YFP fluorescence quenching using Facinicline: 81.35
30 uM tc6987
  YFP fluorescence quenching using TC-6987: 14.75
50 uM tc6987
  YFP fluorescence quenching using TC-6987: 21.33
100 uM tc6987
  YFP fluorescence quenching using TC-6987: 29.7
300 uM tc6987
  YFP fluorescence quenching using TC-6987: 20.79
500 uM tc6987
  YFP fluorescence quenching using TC-6987: 44.37
TC-6683 30 nM
  percent quench of YFP fluorescence, 30 nM TC-6683: −23.88%
TC-6683 300 nM
  percent quench of YFP fluorescence, 300 nM TC-6683: −21.46%
TC-6683 3 uM
  percent quench of YFP fluorescence, 3 uM TC-6683: −21.07%
TC-6683 30 uM
  percent quench of YFP fluorescence, 30 uM TC-6683: −16.15%
TC-6683 100 uM
  percent quench of YFP fluorescence, 100 uM TC-6683: −18.96%
Acetylcholine 10 uM
  percent quench of YFP fluorescence, 10 uM ach: −10.11%
Acetylcholine 100 uM
  percent quench of YFP fluorescence, 100 uM ach: −10.05%
Acetylcholine 1 mM
  percent quench of YFP fluorescence, 1 mM ach: 32.11%
Acetylcholine 3 mM
  percent quench of YFP fluorescence, 3 mM ach: 57.37%
